We go through one substance from PMC11946224.

A word on the stoichiometry N: it is a count of units in the complex or per binding partner.

In test [1] the target is recombinant cylindracin (C-terminal cysteine-rich domain of cylindracin) (Cyclocybe cylindracea). Description: cross-linking; rCYL at 0.25 mg/mL (39 uM) with 0.005-5 mM BS(PEG)9 in 20 mM sodium phosphate pH 7.2, 150 mM NaCl, 25 C, 30 min; SDS-PAGE, Coomassie staining.
The target is the same in test [2]. Description: cross-linking; rCYL raised from 0.25 mg/mL (39 uM) to 2.0 mg/mL (312 uM) with BS(PEG)9 at 500 uM; SDS-PAGE, Coomassie staining.
For test [3] the target is unchanged. The test is described as above. This is another data set of the same source.

In the case of “recombinant cylindracin (C-terminal cysteine-rich domain of cylindracin) (domain or fragment)”, the stoichiometry N in test [1] is 2; in test [2], 4; in test [3], 2.
